The values below come from publication PMC5809743.

By stoichiometry N is commonly meant a count of units in the complex or per binding partner.

This assay concerns the target FMDV protomer (VP0, VP3 and VP1) from full-length capsid precursor P1-2A processed by 3C protease (foot-and-mouth disease virus, strain O1 Manisa). Briefly: sucrose density gradient sedimentation.

“FMDV protomer (VP0, VP3 and VP1) from full-length capsid precursor P1-2A processed by 3C protease (complex)”: the reduction in pentamer formation with 17-DMAG, against no drug was 50% and the stoichiometry N amounted to 5.
